This series concerns the target human insulin (Homo sapiens, UniProt P01308;P01308 25-54;90-110). Description: graphene field-effect transistor.

The text below walks through data of paper PMC7875320.

Chain of human insulin (P01308 25-54, chain 1 of 2): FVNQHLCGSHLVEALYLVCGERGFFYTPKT
Chain of human insulin (P01308 90-110, chain 2 of 2): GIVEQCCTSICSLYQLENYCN

B1: IGA3 (structured_DNA)
DNA: GGTGGTGGGGGGGGTTGGTAGGGTGTCTTC
modifications: 5'-NH2 (amine)
In the case of B1, binding was characterised by a dissociation constant (Kd) of 0.035 µM.
